As usually defined, the EC50 is the concentration needed to bring the measured effect to its halfway point. The term koff denotes a measure of how fast the partners let go of each other. High values mean a short-lived complex, low ones a long-lived complex. For orientation: kon means a measure of how fast the partners come together.

Assay [1] has as its target T1, CS1 ECD-Fcγ3 fusion protein (human, UniProt Q9NQ25 23-226).
T1 construct: also called CS1-G3; CS1-γ3; not shown: constant region of IgG3 (human Fc-γ3)
Put plainly: direct binding ELISA, coated human CS1-human Fcγ3. A general note: In an ELISA, binding on a coated surface is turned into a signal by an enzyme label.

Assay [2] concerns the target T2, human CS1-Fc fusion protein (human, UniProt Q9NQ25 23-226, limits assumed).
T2 construct: analyte of the BIAcore experiment; not shown: Fc part
Put plainly: SPR BIAcore 2000, antibody immobilised, CS1-Fc analyte, bivalent analyte model.

Assay [3] concerns the target T3, CS1 ECD-myc-GPI fusion protein on NSO cells (human, UniProt Q9NQ25 23-226, glycosyl phosphatidylinositol linkage for cell surface expression).
T3 construct: also called NSO-CS1
Put plainly: FACS, NSO-CS1 cells. (In general: A flow cytometer gives signals particle by particle.)

The next assay has as its target T4, NSO-FcRn.
T4 construct: negative control transfectant; also called FcRn on NSO cells
Nature of the assay: FACS, NSO-FcRn cells.

Assay [4] addresses T5, human CS1 (native, on K562 and Daudi cells) (human, UniProt Q9NQ25 23-335).
T5 construct: K562 and Daudi cells 'are known to express native CS1'; also called SLAMF7; CRACC
Nature of the assay: FACS, Daudi cells.

In assay [5] the target is T5, human CS1 (native, on K562 and Daudi …). Put plainly: FACS, K562 cells.
The target in assay [6] is T3, CS1 ECD-myc-GPI fusion protein on NSO …. Put plainly: cell-based or functional assay.
The target in assay [7] is T2, human CS1-Fc fusion protein. Nature of the assay: SPR BIAcore 2000. In general terms: In SPR one partner is held on a chip, and binding of the other changes the refractive index at the surface.
Assay [8] concerns the target T6, hu75/mu25 chimeric CS1-Fc (human/mouse chimera; human).
T6 construct: entry starts with the signal peptide; not shown: human gamma 1 Fc tag of the NIF Fc vector
T6 chain: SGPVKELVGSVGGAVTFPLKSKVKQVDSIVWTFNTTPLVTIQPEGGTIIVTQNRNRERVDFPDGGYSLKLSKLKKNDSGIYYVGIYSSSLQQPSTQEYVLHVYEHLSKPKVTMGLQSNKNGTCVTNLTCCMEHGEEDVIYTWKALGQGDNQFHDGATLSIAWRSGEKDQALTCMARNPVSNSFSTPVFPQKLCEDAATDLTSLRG
Put plainly: sandwich ELISA, Fc-captured construct.

For assay [9], the target named is T7, huCS1 (human CS1 extracellular domain, amino acids 1-227, fused to human gamma 1 Fc) (human, UniProt P01857-1 99-330 = IgG part).
T7 construct: domain: human Fc tag; secreted protein in 293/T supernatant; also called human CS1-Fc
Nature of the assay: sandwich ELISA, Fc-captured construct.

In assay [10] the target is T8, mu25/hu75 chimeric CS1-Fc (human/mouse chimera; human).
T8 construct: entry starts with the signal peptide; not shown: human gamma 1 Fc tag of the NIF Fc vector
Nature of the assay: sandwich ELISA, Fc-captured construct.

B1: HuLuc63 (antibody, human IgG1, V domains shown)
VH: EVQLVESGGGLVQPGGSLRLSCAASGFDFSRYWMSWVRQAPGKGLEWIGEINPDSSTINYAPSLKDKFIISRDNAKNSLYLQMNSLRAEDTAVYYCARPDGNYWYFDVWGQGTLVTVSS
VL: DIQMTQSPSSLSASVGDRVTITCKASQDVGIAVAWYQQKPGKVPKLLIYWASTRHTGVPDRFSGSGSGTDFTLTISSLQPEDVATYYCQQYSSYPYTFGQGTKVEIK
notes: human IgG1/κ, transiently expressed in 293-H cells; also called humanized Luc63; HuLuc63 IgG1/κ antibody
In [1], B1 yielded a 50% effective concentration (EC50) of 0.0701 mg/L.

B2: Luc63 (antibody, IgG2a, V domains shown)
VH: EVKLLESGGGLVQPGGSLKLSCAASGFDFSRYWMSWVRQAPGKGLEWIGEINPDSSTINYTPSLKDKFIISRDNAKNTLYLQMSKVRSEDTALYYCARPDGNYWYFDVWGAGTTVTVSS
VL: DIVMTQSHKFMSTSVGDRVSITCKASQDVGIAVAWYQQKPGQSPKLLIYWASTRHTGVPDRFTGSGSGTDFTLTISNVQSEDLADYFCQQYSSYPYTFGGGTKLEIK
notes: mouse monoclonal, IgG2a; also called Lu 63; Luc63-1
On to B2, for which the Kd in [2] came out at 0.0346 µM. The “FACS (MFI)” value is 214 MFI in assay [3], less than 5 MFI with NSO-FcRn, 12.7 MFI in [4] and 15.8 MFI in assay [5]. The molecule further yielded an EC50 in assay [1] of 0.0661 mg/L.

B3: Luc90 (antibody, IgG2b, V domains shown)
VH: QVQLQQPGAELVRPGASVKLSCKASGYSFTTYWMNWVKQRPGQGLEWIGMIHPSDSETRLNQKFKDKATLTVDKSSSTAYMQLSSPTSEDSAVYYCARSTMIATRAMDYWGQGTSVTVSS
VL: DIVMTQSQKSMSTSVGDRVSITCKASQDVITGVAWYQQKPGQSPKLLIYSASYRYTGVPDRFTGSGSGTDFTFTISNVQAEDLAVYYCQQHYSTPLTFGAGTKLELK
notes: mouse monoclonal, IgG2b; subclone Luc90.H1 used in BIAcore; also called Luc90-H1, D9; Luc90.H1
Turning to B3, in assay [6], the “cytotoxicity of the target cells (ADCC, LDH release, PBMC effectors 20:1)” value was roughly 50%. Besides, the “fold higher binding affinity than Luc34.1” value in assay [7] turned out to be 28 fold. The “fold higher binding affinity than Luc 63.2” value in assay [7] was 5.5 fold. For the same molecule, the Kd in assay [2] is 0.00629 µM. The koff in assay [2] was 0.000281 s⁻¹. In [2], this molecule registered a kon of 45600 M⁻¹ s⁻¹. The binding result in [8] is “binds”; in assay [9] it was “binds”; in assay [10] it was “no binding (tested: 2 ug/ml)”. In addition, the “FACS (MFI)” value in [3] is 237 MFI; in the assay with NSO-FcRn it was less than 5 MFI; in assay [4], 10.1 MFI; in assay [5], 9.7 MFI.

B4: Luc69 (antibody, V domains shown)
VH: QVQLQQSGPELVKPGASVKISCKASGYAFSNSWMNWVKQRPGQGLEWIGRIYPGDGDTKSNGKFKGKATLTADKSSRAAYMQLSSLTSVDSAVYFCARSTMIMTGAMDYWGQGTSVTVSS
VL: DIVMTQSHKFMSTSVGDRVIITCKASQDVSTAVAWYQQKPGQSPKLLIYSASFRYTGVPDRFTGSGSGTDFTFTVSSVQAEDLAVYYCQQHYSTPPYTFGGGTKLEIK
notes: mouse monoclonal
Turning to B4, the binding result in assay [8] is “binds”; in assay [9], “binds”; in assay [10], “no binding (tested: 2 ug/ml)”.

B5: Luc34 (antibody, IgG1, V domains shown)
VH: QVQLQQSGAELARPGASVKLSCKASGYTFTSYWMQWVKQRPGQGLEWIGAIYPGDGDTRYTQKFKGKATLTADKSSSTAYMQLSSLASEDSAVYYCARGKVYYGSNPFAYWGQGTLVTVSA
VL: DIQMTQSSSYLSVSLGGRVTITCKASDHINNWLAWYQQKPGNAPRLLISGATSLETGVPSRFSGSGSGKDYTLSITSLQTEDVATYYCQQYWSTPWTFGGGTKLEIK
notes: subclone Luc34.1 used in BIAcore; also called Luc34-1; Luc34-3
Take B5: in [2], the Kd turned out to be 0.173 µM. In assay [2], the off-rate constant (koff) came out at 0.00127 s⁻¹. Moreover, in [2], the kon came to 7480 M⁻¹ s⁻¹. Also, the binding result in assay [8] is reported as “binds”; in assay [9], “binds”; in assay [10] it was “no binding (tested: 2 ug/ml)”. For the same molecule, the “FACS (MFI)” value was 127 MFI in assay [3], less than 5 MFI with NSO-FcRn, 10.3 MFI in assay [4] and 26.2 MFI in assay [5].

Values taken from patent US20060024296A1 (AbbVie / Abbott, published 2006).
